Results published in the supplement of paper PMC9233669.
This sample holds only a part of the variants without activity.

Legend:
biotinyl-Phe-oxazolone = assay: self-aminoacylation, catalytic enhancement (BFO) (fold over background); higher = more active; k-Seq, kA / k0A0; sequences stand for … in GGGAAUGGAUCCACAUCUACGAAUUC…UUCACUGCAGACUUGACGAAGCUG
In short: (§1)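 The uncatalyzed rate is the low-activity peak of a bimodal Gaussian fit, and catalytic enhancement is median kA divided by it. The kA values came from pseudo-first-order fits, with 1000 bootstraps, of per-sequence fraction reacted measured by streptavidin capture, triplicate qPCR and Illumina sequencing. Mutagenized RNA pools with a 21-nt variable region (0.43 μM) were reacted with each biotinyl-aminoacyl-oxazolone at 2–1250 μM in 50 μL HEPES/NaCl/KCl/MgCl2/CaCl2 buffer with 5% acetonitrile, pH 6.9–7.0, for 90 minutes at room temperature.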

biotinyl-Ile-oxazolone = assay: self-aminoacylation, catalytic enhancement (BIO) (fold over background); higher = more active; k-Seq, kA / k0A0; sequences stand for … in GGGAAUGGAUCCACAUCUACGAAUUC…UUCACUGCAGACUUGACGAAGCUG
In short: as §1

biotinyl-Met-oxazolone = assay: self-aminoacylation, catalytic enhancement (BMO) (fold over background); higher = more active; k-Seq, kA / k0A0; sequences stand for … in GGGAAUGGAUCCACAUCUACGAAUUC…UUCACUGCAGACUUGACGAAGCUG
In short: as §1

biotinyl-Val-oxazolone = assay: self-aminoacylation, catalytic enhancement (BVO) (fold over background); higher = more active; k-Seq, kA / k0A0; sequences stand for … in GGGAAUGGAUCCACAUCUACGAAUUC…UUCACUGCAGACUUGACGAAGCUG
In short: as §1

biotinyl-Leu-oxazolone = assay: self-aminoacylation, catalytic enhancement (BLO) (fold over background); higher = more active; k-Seq, kA / k0A0; sequences stand for … in GGGAAUGGAUCCACAUCUACGAAUUC…UUCACUGCAGACUUGACGAAGCUG
In short: as §1

biotinyl-Trp-oxazolone = assay: self-aminoacylation, catalytic enhancement (BWO) (fold over background); higher = more active; k-Seq, kA / k0A0; sequences stand for … in GGGAAUGGAUCCACAUCUACGAAUUC…UUCACUGCAGACUUGACGAAGCUG
In short: as §1

Sequence	self-aminoacylation (biotinyl-Phe-oxazolone)	self-aminoacylation (biotinyl-Ile-oxazolone)	self-aminoacylation (biotinyl-Met-oxazolone)	self-aminoacylation (biotinyl-Val-oxazolone)	self-aminoacylation (biotinyl-Leu-oxazolone)	self-aminoacylation (biotinyl-Trp-oxazolone)
CCACACUUCGAGCAAUUGGUC [Fam1B.1 aminoacylation ribozyme variant]	0.518	0.79	0.721	0.956	0.747	0.375
CGACACUUCAAGCAAUCGUUC [Fam1B.1 aminoacylation ribozyme variant]	1	0.778	0.629	0.946	0.669	0.465
AAGUUUGCUAAUAGUCGCUCG [Fam3.1 aminoacylation ribozyme variant]	0.809	0.706	0.815	0.657	0.647	0.853
AUCCCCCUGGUCAUCGAGUGA [Fam2.1 aminoacylation ribozyme variant]	45.2	3.85	5.79	4.12	6.5	7.31
GCACACUUCAAGAAAUCGGUC [Fam1B.1 aminoacylation ribozyme variant]	7.74	1.97	1.87	1.59	2.21	8.15
AAGUUUACUGAUAGUCGCAAG [Fam3.1 aminoacylation ribozyme variant]	2.67	1.62	1.02	1.32	1.38	1.55
AGUACCCUGGUCAUCCAGUGA [Fam2.1 aminoacylation ribozyme variant]	34.7	3.06	5.15	2.86	5.87	6.9
CCACACCGCAAGCAAUCGGUC [Fam1B.1 aminoacylation ribozyme variant]	0.867	1.12	1.13	1.13	0.882	1.02
AUGCACCCAGGUCAUCGGGUG [Fam2.2 aminoacylation ribozyme variant]	21	3.29	3.42	3.89	4.35	5.32
CCACACUCCAAGCAGUCGGUC [Fam1B.1 aminoacylation ribozyme variant]	0.733	1.32	1.04	1.49	1.11	1.04
AUUCAUGUAGGUCAUCGGGUG [Fam2.2 aminoacylation ribozyme variant]	33.9	3	5.45	3.43	6.54	5.09
CCAGUUCAAACAAUCGGUCUG [Fam1A.1 aminoacylation ribozyme variant]	14.2	1.41	1.34	1.39	1.5	10.7
AUCCACCUAGGUCAUCGGGAG [Fam2.2 aminoacylation ribozyme variant]	1.03	1.88	1.65	2.17	1.68	2.19
ACUCACCUAGGUCAGCGGGUG [Fam2.2 aminoacylation ribozyme variant]	31.4	3.56	4.16	3.86	4.43	4.54
AAGUGUGCUAAGAGUCGCAAG [Fam3.1 aminoacylation ribozyme variant]	5.24	1.11	1.15	0.87	1.13	2.15
CUACUUCAAACAAUCGGAGUG [Fam1A.1 aminoacylation ribozyme variant]	6.37	3.06	3.25	2.52	4.96	3.77
CCAGACUUCAAGCAAUCGGUC [Fam1B.1 aminoacylation ribozyme variant]	43.9	1.45	1.42	1.54	2.04	26
AUGCCCCUAGGUCAUCGGGUG [Fam2.2 aminoacylation ribozyme variant]	63.9	5.52	8.48	5.39	11.1	7.6
AAGUUUGCUAAUAGUCGCGAC [Fam3.1 aminoacylation ribozyme variant]	1.05	0.944	1	0.909	0.907	1.19
ACACACUUCAAGCAAUCGGGC [Fam1B.1 aminoacylation ribozyme variant]	2.02	2.48	2.81	2.73	2.34	3.29
AUUCACCUAGAUCCUCGGGUG [Fam2.2 aminoacylation ribozyme variant]	22.6	2.22	3.57	1.99	4.04	3.16
